± gives the standard error. This sample holds only a part of the variants without activity.
B1: glmS ribozyme (parent)
chain: AUAAAAGCGCCAGAACUACAGAAAUGUAGUUGACGAGGAGGAGGUUUAUCGAAUUUUCGGCGGAUGCCUCCAAA

Columns and labels:
Conditions in all cases: with glucosamine-6-phosphate
[1] = variants of: B1; assay: self-cleavage kobs at 640 uM GlcN6P; higher = faster cleavage; RNA array
How it was run: (§1)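 Sequenced MiSeq chips were the platform: E. coli RNA polymerase transcribed barcoded ribozyme variants on them in situ, and a hybridised Cy3 probe tracked these at 37 °C. After glucosamine-6-phosphate (40 μM to 10 mM) in HEPES/KCl/Mg(OAc)2 buffer was flowed in, tiles were imaged over ~14 h. Signals normalised to baseline and to non-cleaving reference variants were reduced to per-tile medians and fit to one- or two-exponential decays to obtain kobs. kcat and KM were derived through weighted Michaelis–Menten fits across concentrations.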

[2] = variants of: B1; assay: self-cleavage kobs at 2500 uM GlcN6P; higher = faster cleavage; RNA array
How it was run: as §1

[3] = variants of: B1; assay: self-cleavage kobs at 10000 uM GlcN6P; higher = faster cleavage; RNA array
How it was run: as §1

Variant	self-cleavage kobs at 640 uM GlcN6P [1] [s⁻¹]	self-cleavage kobs at 2500 uM GlcN6P [2] [s⁻¹]	self-cleavage kobs at 10000 uM GlcN6P [3] [s⁻¹]
AUAAAAGCGCCUGAACUACAGAAAUGUAGUUGACGCGGAGGAGGUUUAUCGAAUUUUCGGCGGAUGCGUCCAAA	0.000173 ± 5.8e-05	–	–
AUAAAAGCGCCAGAAUUACAGAAAUGUAGUUGACGAGGGGGAGGUUUAUCGACUUUUCGGCGGAUGCAUCCAAA	< 1e-05	–	–
AUAAAAGCGCCAGAACUACAGAAAUGUAUUUGACGAGGAGGAGGUUUAUCGAAUUUUCGGCGGAUGUCUUCAAA	4.16e-05 ± 1.2e-05	9.35e-05 ± 1.8e-05	–
AUAAAGGCGCCAGAACUACAGAAAUGUAGUUGACGAGGAGGAGGUUUAUUGAAUUUUCGGUGGAUGCCUCCAAA	< 1e-05	< 1e-05	–
AUAAAAGCGGCAGAACUACAGAAAUGUAGUUGACGAGGAGGAGGUUUAUCGAAUUUUCGGCGGAUGGUUCCAAA	0.0001 ± 4.2e-05	7.32e-05 ± 3e-05	2.77e-05 ± 1.3e-05
AUAAAAACGCCAGAACUACAGAAAUGUAGUUGACGAGGCGGAGGUUUAUCGAAUUUUCGGCGGAUGCCUCCAAA	< 1e-05	< 1e-05	–
AUAAAAGCGCCAGAACUACAGAAAUGUAGUUGACGAGGAGGAGGUUUGUCGAAUUUUAGGCGGAUGGCUUCAAA	0.000135 ± 4.4e-05	6.91e-05 ± 2.5e-05	4.32e-05 ± 1.3e-05
AUAAAAGCGCCAGAUCUACAGAAAUGUAGUUGACGAGGAGAAGUUUUAUUGAAUUUUCGGCGGAUGCCUCCAAA	< 1e-05	–	–
AUAAAAGCGCCAGAACUACAGAAAUGUAGUUGACGAGGGGGAGGGUUAUCGAAUUUUCGGCGGAUGCCUCUAAA	0.00169 ± 0.0004	0.0041 ± 0.0017	–
AUAAAAGCGGCAGAACUACAGAAAUGUAGUUGACGAGGAGGAGGUUAAUCGAUUUUUCGUCGGAUGCCUCCAAA	< 1e-05	–	–
AUAAAAGCUCCAGAACUACAGAAAUGUAGUUGACGAGGACGAGGUUUAUGGAAUUUUCGGCGGAUGCCUCCAAA	< 1e-05	< 1e-05	–
AUAAAUGCGCCAGAACUACAGAAAUGUAGUUGAAGAGGAGGAGUUUUAUCGAAUUUUCGGCGGAUGUCUCCAAA	< 1e-05	< 1e-05	–
AUAAAAGCGCUAGAACUACAGAAAUGUAGUUGACGAGGAGGAGGUUUAUCGAAUUUUCGGCGGAGGGCUCCAAA	0.000877 ± 0.00023	–	0.000136 ± 2.6e-05
AUAAAAGCGCCAGAACUACAGAAAUGUAGUUGACGAGGACGAGGUUUAUCCAAUUUUCGGCGCAUGCCUCAAAA	< 1e-05	< 1e-05	–
AUAAAAGCGCAAGAACUACAGAAAUGUAGUUGACGAGGAGGAGGUUUAUCGGAUUUUCGGCGGCUGCCUCCAAA	< 1e-05	< 1e-05	–
AUAAAAGCGCCAGAACUACAGAAAUGUAGUUGACGAGGAGGAGGUAUAUCGAAUUUUAGGUGGAUGCCUCGAAA	< 1e-05	< 1e-05	–
AUAAAGGCGCCAGAACUACAGAAAUGUAGUUGACGAGGAUGAGGUUUAUCGAAUUUUCGGCGGAUGACUCCAAA	< 1e-05	–	–
AUAAAAGCGCCAGCACUACAGAAAUGUAGUUGACGAGGAGGAGGUUUAUCGAAUUAUCGGCGGAUGCCUCUAAA	0.000174 ± 4.2e-05	0.000691 ± 0.00019	–
AUAAAAGCGCCACAACUACAGAAAUGUAGUUGACGAGGGGGAGGUUUAUCGAAUUUCCGGCGGUUGUCUUCAAA	< 1e-05	–	–
AUAAAAGCGUCAGAAUUACAGAAAUGUAGUUGACGAGGAGGAGGUUUAUCGAAUUUUCGGCGGAUGCCUCGAAA	6.17e-05 ± 2.9e-05	–	–
AUAAAAGGGCCAGAACUACAGAAAUGUAGUUAACGAGGAGGAGGUUUAUCGAGUUUUCGGCGGAUGCCUCCAAA	< 1e-05	–	–
AUAAAAGCGCCAGAACUACAGAAAUGUAGUAGUCGAGGAGGAGGUUUAUCGAAUAUUGGGCGGAUGCCUCCAAA	< 1e-05	< 1e-05	–

Variant	self-cleavage kobs at 640 uM GlcN6P [1] [s⁻¹]	self-cleavage kobs at 2500 uM GlcN6P [2] [s⁻¹]	self-cleavage kobs at 10000 uM GlcN6P [3] [s⁻¹]
AUAAAAGCACCAGAACUACAGAAAUGUAGUUGACGUGGAGGAGGUUUAUCGAAUUGUCGGCGGAUGCCUCCAAA	< 1e-05	–	–
AUAAACGCGCCAGAACUACAGAAAUGUAGUUGACGAGUAAGAGGUUUGUCGUAUUUUCGGCGCAUGCCUCCAAA	< 1e-05	< 1e-05	–
AUAAAAGCGCCCGAACUACAGAAAUGUAGUUGACGAGGAGGUGGUUUAUCGAAUUUUCGGCGGAUGCUUCCAAA	5.31e-05 ± 1.5e-05	0.000111 ± 2.6e-05	–
AUAAAAGCGCCAGAACUACAGAAAUGUAGUUGUCGAGGAGCAGGUUUAUCGCUUUUUCGGCGGGGGCCUGCAAA	< 1e-05	–	–
AUAAAAGCGGCAGCACUACAGAAAUGUAGUUGACGAGGAGGAGCUUUAUCCAAUUUUCGGCGGAUGCCUCCAAA	< 1e-05	–	–
AUAAAAGCGCCAGAACUACAGAAAUGUAGUUGACGAGCAGGAGGUUUAUGGAAUUUUCGGCGGAUGGCUCCAAA	6.94e-05 ± 1.3e-05	0.000141 ± 4.2e-05	–
AUAAAAGCUCCAGAACUACAGAAAUGUAGUUGACGAGGAUGAGGUUGAUCGAAUUUUCGGCGGAAGCCUCCAAA	< 1e-05	< 1e-05	–
AUAAAAGCGCCAGAGCUACAGAAAUGUAGCUGAGGCGGAGUAGGUUUAACGAAUUUUCGGCGGAUGCCUACAAA	< 1e-05	< 1e-05	–
AUAAAAGCGCCAGAACUACAGAAAUGUAGUUGACUAGGCGGAGGUUUAUCGAAUUUUCGGCGGAUGCCUCUAAA	< 1e-05	< 1e-05	–
AUAAAAGUGCCAGAACUACAGAAAUGUAGUUGACGAGGAGGAGGUUUAUCGAAUUUUCGACGGACGCCUCCAAA	< 1e-05	–	–
AUAAAAGCGCCAGAACUACAGAAAUGUAGGUGACGAGGCGGAGGUUUAUCGAAUGUUCGGCGGAUGCCUCCAAA	0.000198 ± 5.5e-05	0.000726 ± 0.00014	0.00144 ± 0.00047
AUAAAAGCGCCAGAACUACAGAAAUGUAGUUGACGAGGACGAGUUUCAUCGAAUAUUCGGCGGAUGCCUCCAAA	< 1e-05	< 1e-05	–
AUAAAAGCGCCAGAACUACAGAAAUGUAGUUGACGAGGAGGAGGUUUAUAGAAUUUUCGCCGGAUGCUUCCAAA	4.56e-05 ± 2.1e-05	–	–
AUAAAAGCGCCAGAACUACAGAAAUGUAGUUGACGAGUAGGAGCUUUAUCGAAUUCUCGGCGGAUGCCUCCAAA	< 1e-05	< 1e-05	–
AUAAAAGCCCCAGAACUACAGAAAUGUAGUUGACGAGGAGGUGGUUAAUCGAAUUUGCGGCGGAUGCCUCCAAA	< 1e-05	–	–
AUAAACGCGCCAUAACUACAGAAAUGUAGUUGACGAGGAGGAGGUUUAUGGAAUUUUCGGCAGAUGCUUCCAAA	0.000276 ± 0.0001	0.000212 ± 9.7e-05	–
AUAAAAGCGCCAGAACUACAGAAAUGUAGUUGACGAGGAGGUGGUUUAUCGAAUUUUCGGGGGAUACCUCCAAA	< 1e-05	–	–
AUAAAAGCGCCAGAAAUACAGAAAUGUAGGUGACAAGGAGGAGGUUUAUAGAAUUUUCGGCGGAUGCCUCCAAA	< 1e-05	–	< 1e-05
AUAAAAGCGCCAGAACUACAGAAAUGUAGUUGAAGAGGAGGCGGUUUAUCGAAUUUUCGGUGGAUGCCUCCAAA	< 1e-05	< 1e-05	–
AUAAAAUCGCCAGAACUACAGAAAUGUAGUUGACGAGGGGGAGGUUUUUCGAAUUUUCGGCGGAUGCCUCCAAA	< 1e-05	–	–
AUAAAAGCGCCAGAACUACAGAAAUGUAGUUGACUAGGAGGAGGUUUAUCGAAUUUUCGGGGGAUGCCUCCAAA	< 1e-05	–	< 1e-05
AUAAAAGCGCCAGAACUACAGAAAUGUAGUUGACGAGGAGGAGGUUAAUCGAAUUUUCGGCAGAUGCCUCCAAA	< 1e-05	< 1e-05	–

Reference: the supplement of paper PMC7125110
